Source: patent US20130034493A1 (RESEARCH DEVELOPMENT FOUNDATION, published 2013)

Target: T1, recombinant BMP4 (rBMP4) (mouse, UniProt P21275 293-408, limits assumed)
T1 sequence (looked up): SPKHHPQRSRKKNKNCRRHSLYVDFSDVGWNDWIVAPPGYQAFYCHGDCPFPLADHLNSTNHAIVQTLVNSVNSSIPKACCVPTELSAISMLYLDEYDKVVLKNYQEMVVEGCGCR
Assay: cell-based or functional assay

B1: mouse recombinant Olfml3-FLAG tagged protein (rOlfml3-FLAG) (other, not shown: small tags and cut ends)
chain: QQHHLVEYMERRLAALEERLAQCQDQSSRHAAELRDFKNKMLPLLEVAEKERETLRTEADSISGRVDRLEREVDYLETQNPALPCVELDEKVTGGPGAKGKGRRNEKYDMVTDCSYTVAQVRSMKILKRFGGSVGLWTKDPLGPAEKIYVLDGTQNDTAFVFPRLRDFTLAMAARKASRIRVPFPWVGTGQLVYGGFLYYARRPPGGPGGGGELENTLQLIKFHLANRTVVDSSVFPAESLIPPYGLTADTYIDLAADEEGLWAVYATRDDDRHLCLAKLDPQTLDTEQQWDTPCPRENAEAAFVICGTLYVVYNTRPASRARIQCSFDASGTLAPERAALSYFPRRYGAHASLRYNPRERQLYAWDDGYQIVYKLEMKKKEEEV
**Q.** B1 was tested. Which “ERK1/2 phosphorylation in HUVECs” value did it give?
**A.** 5 fold
